Measured values as given in patent publication US20240122985A1, “ANTIBODIES, COMBINATIONS COMPRISING ANTIBODIES, BIOMARKERS, USES & METHODS” (KYMAB LIMITED, priority 2016, published 2024).
“And” between values parts separate entries of the source, which are not always exact repeats. Equal values may be shown once.

Experiments:
[1] = KY1005 pharmacokinetic (PK) analysis (OX40L capture ECL, MSD); type: in vivo, Rhesus macaque; conditions: mono-prophylaxis, 10 mg/kg once weekly (FIG. 16A)
Procedure: For PK analysis, serum samples were collected 30 minutes before and 30 minutes after each infusion of KY1005 and then once weekly after the last dose was given. The KY1005 concentration was measured using an antigen (OX40L) capture electrochemiluminescence (ECL) assay on the MSD platform. In this assay, an MSD streptavidin 96-well plate is first coated with biotinylated-OX40L, followed by the addition of test samples, followed by the detection of bound KY1005 by a ruthenylated anti-human IgG (pre-adsorbed against monkey serum for added specificity).

[2] = system: human T-cells with allogeneic T-cell-depleted cells; assay: Human mixed lymphocyte reaction (CellTrace Violet); type: cell-based; conditions: KY1005 150 μg/L, 7 days (FIG. 12H)
Procedure: Human Mixed Lymphocyte Reaction: Human MLRs were performed on unrelated healthy controls. PBMC samples were freshly isolated by Ficoll fractionation, followed by magnetic pan T-cell isolation using the Miltenyi Biotec human pan-T-cell isolation kit. Isolated T-cells were labeled with 2.5 μM CellTrace Violet (Invitrogen) and were co-cultured with irradiated (3500 cGy) on-column T-cell-depleted cell fractions from unrelated allogeneic individuals. MLR cultures were maintained for 7 days at 37° C. in XVivo15 (Lonza) supplemented with 10% FCS, 2 mM glutamine, penicillin-streptomycin and gentamycin and beta-Mercaptoethanol. KY1005 was added to the cultures at day 0 at a dose of 150 μg/L. On Day 7, cells were collected from the cultures, and were stained with antibodies against CD3, CD4, CD8, and then Live/Dead Aqua (Molecular Probes/Invitrogen) was added to exclude dead cells and debris. CellTrace Violet dilution was then measured in CD3^+, Live/Dead Aqua-cells by flow cytometry.

[3] = system: Cytomegalovirus (CMV), bacterial and fungal infections; assay: CMV monitoring and infections after transplant; type: in vivo, Rhesus macaque; conditions: 2D10 IgG4PE Rhesus GvHD Study, per animal
Procedure: Cytomegalovirus (CMV) monitoring was performed as previously described (Larsen et al, 2010) and is reported as CMV copies/mL of whole blood. Whole blood samples were collected and CMV viral load was measured twice weekly on days 0 to 30 post-HCT, then at least once weekly on days 31 to 60 post-HCT and then at least once every 2 weeks from day 61 until the experimental endpoint. CMV prophylaxis and treatment was performed according to our standard NHP strategy, as previously described (Zheng et al, 2017). Briefly, CMV prophylaxis was provided to all transplant recipients and included weekly Cidofovir, given at a dose of 5 mg/kg, along with renal protection with 3 doses of Probenecid (167 mg PO/dose) given within the first 24 hours after each cidofovir dose. Recipients who reactivated CMV continued cidofovir and were also treated with parenteral gancyclovir, which was given at 5 mg/kg/dose twice daily. Gancyclovir treatment was continued until CMV levels were undetectable for two weeks and then discontinued.

| Molecule | KY1005 trough [1] [mg/L] | allo-proliferation of human cells in vitro [2] | evidence of CMV or rhLCV infection [3] |
| --- | --- | --- | --- |
| KY1005: antibody used for GVHD immunoprophylaxis in NHP, measured by antigen (OX40L) capture assay; not tied to 02D10 in this part | 107.9 ± 11.7 | inhibit allo-proliferation of human cells in vitro |  |
| 2D10 IgG4PE: fully human anti-human OX40L monoclonal antibody, human IgG4-PE; VH Seq ID No:34, VL Seq ID No:48; 2D10-1 to -4 are stable pools (antibody, V domains shown, human IgG4-PE constant regions; 02D10 - VH Amino Acid Sequence; 02D10 - VL Amino Acid Sequence) VH: EVQLVESGGGLVQPGGSLRLSCAASGFTFSNYAMNWVRQAPGKGLEWVSTISGSGGATRYADSVKGRFTISRDNSRNTVYLQMNSLRVEDTAVFYCTKDRLIMATVRGPYYYGMDVWGQGTTVTVSS VL: DIQMTQSPSSLSASVGDRVTITCRASQSISSYLNWYQQKPGKAPNLLIYAASSLQSGVPSRFSGSGSETDFTLTISSLQPEDFATYYCQQSHSVSFTFGPGTKVDIK |  |  | No evidence of CMV or rhLCV infection and No (3×) and followed by autologous repopulation concurrent with evidence of CMV and rhLCV |
